In publication PMC10397247:
Where two headings read alike, the source gives them in different places. Blank lines part the entries; values can stand above or below the binder they belong to.

Tests used:
O9-bA = molecular target: T1, O9-bA; assay: two-hybrid library CCNG1;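 also: natural log of median RNA to DNA barcode read ratio; higher means stronger binding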
T1 chain: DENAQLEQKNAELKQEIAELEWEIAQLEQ

O4-bA = molecular target: T2, O4-bA; assay: two-hybrid library CCNG1;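 also: natural log of median RNA to DNA barcode read ratio; higher means stronger binding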
T2 chain: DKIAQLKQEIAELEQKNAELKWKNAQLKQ

O15-bA = molecular target: T3, O15-bA; assay: two-hybrid library CCNG1;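 also: natural log of median RNA to DNA barcode read ratio; higher means stronger binding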
T3 chain: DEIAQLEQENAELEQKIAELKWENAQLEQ

O2-bA = molecular target: T4, O2-bA; assay: two-hybrid library CCNG1;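 also: natural log of median RNA to DNA barcode read ratio; higher means stronger binding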
T4 chain: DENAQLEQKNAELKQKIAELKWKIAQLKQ

O8-bA = molecular target: T5, O8-bA; assay: two-hybrid library CCNG1;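 also: natural log of median RNA to DNA barcode read ratio; higher means stronger binding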
T5 chain: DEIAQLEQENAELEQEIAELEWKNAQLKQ

O16-bA = molecular target: T6, O16-bA; assay: two-hybrid library CCNG1;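 also: natural log of median RNA to DNA barcode read ratio; higher means stronger binding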
T6 chain: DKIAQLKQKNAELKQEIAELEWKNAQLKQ

O6-bA = molecular target: T7, O6-bA; assay: two-hybrid library CCNG1
T7 chain: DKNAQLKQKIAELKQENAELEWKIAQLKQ

O3-bA = molecular target: T8, O3-bA; assay: two-hybrid library CCNG1
T8 chain: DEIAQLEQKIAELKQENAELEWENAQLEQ

O5-bA = molecular target: T9, O5-bA; assay: two-hybrid library CCNG1
T9 chain: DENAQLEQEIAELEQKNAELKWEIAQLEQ

O7-bA = molecular target: T10, O7-bA; assay: two-hybrid library CCNG1
T10 chain: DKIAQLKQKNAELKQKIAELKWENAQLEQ

4H967-bA = molecular target: T11, 4H967-bA; assay: two-hybrid library CCNG1
T11 chain: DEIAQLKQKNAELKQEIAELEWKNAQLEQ

4H87-AA = molecular target: T12, 4H87-AA; assay: two-hybrid library CCmax
T12 chain: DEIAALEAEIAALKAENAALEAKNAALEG

4H775-AA = molecular target: T13, 4H775-AA; assay: two-hybrid library CCmax; conditions: mean of both orientations
T13 chain: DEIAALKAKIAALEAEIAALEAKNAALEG

4H3134-AA = molecular target: T14, 4H3134-AA; assay: two-hybrid library CCmax; conditions: mean of both orientations
T14 chain: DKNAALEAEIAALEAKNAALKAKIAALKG

4H2646-AA = molecular target: T15, 4H2646-AA; assay: two-hybrid library CCmax
T15 chain: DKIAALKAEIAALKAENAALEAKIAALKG

4H2687-AA = molecular target: T16, 4H2687-AA; assay: two-hybrid library CCmax; conditions: mean of both orientations
T16 chain: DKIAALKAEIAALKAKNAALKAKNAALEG

4H3940-AA = molecular target: T17, 4H3940-AA; assay: two-hybrid library CCmax; conditions: mean of both orientations
T17 chain: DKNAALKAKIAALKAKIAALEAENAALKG

4H816-AA = molecular target: T18, 4H816-AA; assay: two-hybrid library CCmax; conditions: mean of both orientations
T18 chain: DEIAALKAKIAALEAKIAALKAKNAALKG

4H3409-AA = molecular target: T19, 4H3409-AA; assay: two-hybrid library CCmax; conditions: mean of both orientations
T19 chain: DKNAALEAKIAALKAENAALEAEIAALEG

4H3625-AA = molecular target: T20, 4H3625-AA; assay: two-hybrid library CCmax; conditions: mean of both orientations
T20 chain: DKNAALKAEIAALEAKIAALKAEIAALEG

4H2705-AA = molecular target: T21, 4H2705-AA; assay: two-hybrid library CCmax
T21 chain: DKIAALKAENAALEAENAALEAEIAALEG

4H2758-AA = molecular target: T22, 4H2758-AA; assay: two-hybrid library CCmax
T22 chain: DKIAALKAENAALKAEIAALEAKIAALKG

4H278-AA = molecular target: T23, 4H278-AA; assay: two-hybrid library CCmax; conditions: mean of both orientations
T23 chain: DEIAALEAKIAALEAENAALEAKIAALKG

4H390-AA = molecular target: T24, 4H390-AA; assay: two-hybrid library CCmax; conditions: mean of both orientations
T24 chain: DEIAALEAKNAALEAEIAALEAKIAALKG

4H510-AA = molecular target: T25, 4H510-AA; assay: two-hybrid library CCmax; conditions: mean of both orientations
T25 chain: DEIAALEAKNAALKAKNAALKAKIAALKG

4H2873-AA = molecular target: T26, 4H2873-AA; assay: two-hybrid library CCmax; conditions: mean of both orientations
T26 chain: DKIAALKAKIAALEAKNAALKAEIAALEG

4H2985-AA = molecular target: T27, 4H2985-AA; assay: two-hybrid library CCmax; conditions: mean of both orientations
T27 chain: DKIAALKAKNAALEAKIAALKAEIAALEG

4H2512-AA = molecular target: T28, 4H2512-AA; assay: two-hybrid library CCmax
T28 chain: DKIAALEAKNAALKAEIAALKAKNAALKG

O9 = molecular target: T29, O9; assay: two-hybrid library CCNG1
T29 chain: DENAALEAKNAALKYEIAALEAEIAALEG

O7 = molecular target: T30, O7; assay: two-hybrid library CCNG1
T30 chain: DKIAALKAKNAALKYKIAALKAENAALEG

O5 = molecular target: T31, O5; assay: two-hybrid library CCNG1
T31 chain: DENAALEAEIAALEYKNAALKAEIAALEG

O2 = molecular target: T32, O2; assay: two-hybrid library CCNG1
T32 chain: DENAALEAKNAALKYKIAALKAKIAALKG

O4 = molecular target: T33, O4; assay: two-hybrid library CCNG1
T33 chain: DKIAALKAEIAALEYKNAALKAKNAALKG

O8 = molecular target: T34, O8; assay: two-hybrid library CCNG1
T34 chain: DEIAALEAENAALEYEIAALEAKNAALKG

O6 = molecular target: T35, O6; assay: two-hybrid library CCNG1
T35 chain: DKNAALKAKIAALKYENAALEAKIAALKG

O3 = molecular target: T36, O3; assay: two-hybrid library CCNG1
T36 chain: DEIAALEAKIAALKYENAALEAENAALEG

4H346-bA = molecular target: T37, 4H346-bA; assay: two-hybrid library CCNG1
T37 chain: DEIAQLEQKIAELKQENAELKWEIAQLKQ

4H575-bA = molecular target: T38, 4H575-bA; assay: two-hybrid library CCNG1
T38 chain: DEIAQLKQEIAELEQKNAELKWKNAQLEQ

4H855-bA = molecular target: T39, 4H855-bA; assay: two-hybrid library CCNG1
T39 chain: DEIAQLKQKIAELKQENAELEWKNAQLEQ

4H918-bA = molecular target: T40, 4H918-bA; assay: two-hybrid library CCNG1
T40 chain: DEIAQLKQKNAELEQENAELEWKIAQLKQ

4H4073-bA = molecular target: T41, 4H4073-bA; assay: two-hybrid library CCNG1
T41 chain: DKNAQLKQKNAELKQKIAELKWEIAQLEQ

4H3010-bA = molecular target: T42, 4H3010-bA; assay: two-hybrid library CCNG1
T42 chain: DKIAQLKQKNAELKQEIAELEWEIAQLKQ

4H2702-bA = molecular target: T43, 4H2702-bA; assay: two-hybrid library CCNG1
T43 chain: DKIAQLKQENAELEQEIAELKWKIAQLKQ

4H797-bA = molecular target: T44, 4H797-bA; assay: two-hybrid library CCNG1
T44 chain: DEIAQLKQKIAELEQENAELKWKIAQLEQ

4H780-bA = molecular target: T45, 4H780-bA; assay: two-hybrid library CCNG1
T45 chain: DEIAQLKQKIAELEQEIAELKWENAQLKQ

4H953-bA = molecular target: T46, 4H953-bA; assay: two-hybrid library CCNG1
T46 chain: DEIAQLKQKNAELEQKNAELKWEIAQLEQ

4H683-bA = molecular target: T47, 4H683-bA; assay: two-hybrid library CCNG1
T47 chain: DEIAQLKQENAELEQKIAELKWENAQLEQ

4H3926-bA = molecular target: T48, 4H3926-bA; assay: two-hybrid library CCNG1
T48 chain: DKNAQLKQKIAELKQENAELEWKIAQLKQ

4H968-bA = molecular target: T49, 4H968-bA; assay: two-hybrid library CCNG1
T49 chain: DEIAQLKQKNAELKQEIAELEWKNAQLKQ

4H754-bA = molecular target: T50, 4H754-bA; assay: two-hybrid library CCNG1
T50 chain: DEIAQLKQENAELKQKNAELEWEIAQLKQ

4H457-bA = molecular target: T51, 4H457-bA; assay: two-hybrid library CCNG1
T51 chain: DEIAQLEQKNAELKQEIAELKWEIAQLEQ

4H3112-bA = molecular target: T52, 4H3112-bA; assay: two-hybrid library CCNG1
T52 chain: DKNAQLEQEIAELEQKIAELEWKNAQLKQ

4H3427-bA = molecular target: T53, 4H3427-bA; assay: two-hybrid library CCNG1
T53 chain: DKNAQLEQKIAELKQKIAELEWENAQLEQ

B3: 4H967-bA (peptide)
chain: DEIAQLKQKNAELKQEIAELEWKNAQLEQ
interaction score (O15-bA): 1.66 | interaction score (4H967-bA): -0.153

B4: 4H2646-AA (peptide)
chain: DKIAALKAEIAALKAENAALEAKIAALKG
interaction score (4H87-AA): 2.43 | interaction score (4H775-AA): -0.478 | interaction score (4H3134-AA): 1.28 | interaction score (4H2646-AA): 1.66 | interaction score (4H2687-AA): 1.36 | interaction score (4H3940-AA): -1.27 | interaction score (4H816-AA): -1.37 | interaction score (4H3409-AA): -0.0843 | interaction score (4H3625-AA): -0.363 | interaction score (4H2705-AA; mean of both orientations): -1.19 | interaction score (4H2758-AA; mean of both orientations): -0.75 | interaction score (4H278-AA): 0.745 | interaction score (4H390-AA): 1.18 | interaction score (4H510-AA): 2.02 | interaction score (4H2873-AA): 1.89 | interaction score (4H2985-AA): -0.411

B5: O15-bA (peptide)
chain: DEIAQLEQENAELEQKIAELKWENAQLEQ
interaction score (O9-bA): -0.0414 | interaction score (O4-bA): -0.5 | interaction score (O15-bA): -1.57 | interaction score (O2-bA): -0.458 | interaction score (O8-bA): -0.714 | interaction score (O16-bA): 2.52 | interaction score (O6-bA): -0.551 | interaction score (O3-bA): -1.21 | interaction score (O5-bA): -0.66 | interaction score (O7-bA): 1.63

B6: 4H2512-AA (peptide)
chain: DKIAALEAKNAALKAEIAALKAKNAALKG
interaction score (4H87-AA; mean of both orientations): -0.485 | interaction score (4H775-AA): -1.11 | interaction score (4H3134-AA): -0.978 | interaction score (4H2646-AA; mean of both orientations): -1.05 | interaction score (4H2512-AA): 0.206 | interaction score (4H2687-AA): -1.95 | interaction score (4H3940-AA): -1.72 | interaction score (4H816-AA): -1.79 | interaction score (4H3409-AA): 1.21 | interaction score (4H3625-AA): -1.5 | interaction score (4H2705-AA): -0.766 | interaction score (4H2758-AA): -0.837 | interaction score (4H278-AA): 2.22 | interaction score (4H390-AA): 0.0427 | interaction score (4H510-AA): -1.85 | interaction score (4H2873-AA): -1.36 | interaction score (4H2985-AA): 0.303

Next, values leading:

interaction score (O9-bA): -0.882 | interaction score (O4-bA): -1.31 | interaction score (O15-bA): 0.435 | interaction score (O2-bA): -1.17 | interaction score (O8-bA): 0.83 | interaction score (O16-bA): -1.53 | interaction score (O6-bA): 1.39 | interaction score (O3-bA): -1.05 | interaction score (O5-bA): 0.182 | interaction score (O7-bA): -1.07
B1: O13-bA (peptide)
chain: DKNAQLKQKIAELKQKNAELKWEIAQLEQ

interaction score (O9-bA): -0.575 | interaction score (O4-bA): -0.146 | interaction score (O15-bA): -0.126 | interaction score (O2-bA): 0.492 | interaction score (O8-bA): -0.111 | interaction score (O16-bA): 2.36 | interaction score (O6-bA): 2.5 | interaction score (O3-bA): -0.879 | interaction score (O5-bA): 1.69 | interaction score (O7-bA): 2.14
B2: O14-bA (peptide)
chain: DENAQLEQEIAELEQENAELEWKIAQLKQ

interaction score (O9): 0.313 | interaction score (O7): -2.4 | interaction score (O5): -1.97 | interaction score (O2): -2.16 | interaction score (O4): -1.83 | interaction score (O8): -0.949 | interaction score (O6): -2.66 | interaction score (O3): -1.84
B7: O2 (peptide)
chain: DENAALEAKNAALKYKIAALKAKIAALKG

interaction score (4H346-bA): 0.224 | interaction score (4H575-bA): -1.27 | interaction score (4H855-bA): -1.38 | interaction score (4H918-bA): -0.134 | interaction score (4H4073-bA): 2.39 | interaction score (O4-bA): -0.822 | interaction score (O15-bA): 0.113 | interaction score (4H3010-bA): 2.07 | interaction score (4H2702-bA): 1.87 | interaction score (4H797-bA): -1.02 | interaction score (4H780-bA): -1.04 | interaction score (4H953-bA): 1.82 | interaction score (4H683-bA): -1.86 | interaction score (4H3926-bA): 1.22 | interaction score (4H968-bA): 2.68 | interaction score (4H754-bA): -1.37 | interaction score (4H457-bA): 1.03 | interaction score (4H3112-bA): 0.438 | interaction score (4H3427-bA): 0.956
B8: 4H2702-bA (peptide)
chain: DKIAQLKQENAELEQEIAELKWKIAQLKQ
